Laboratory results as given in US20240309113A1 (SUZHOU TRANSCENTA THERAPEUTICS, published 2024).
Substitutions are numbered along the chain they refer to.

B1: 125D5G1G2 (hybridoma antibody 125D5, mouse) (antibody, V domains shown)
VH: QVQLQQSGPDLVKPGTSVKISCTASGYTFTDYYINWVKQRPGQGLEWIGWIFPGSGSPYYNENFKGRAMFTVDYSSSSAYMLLSSLTSEDSAVYFCTRGDRSGPFAYWGQGTLVTVSA
VL: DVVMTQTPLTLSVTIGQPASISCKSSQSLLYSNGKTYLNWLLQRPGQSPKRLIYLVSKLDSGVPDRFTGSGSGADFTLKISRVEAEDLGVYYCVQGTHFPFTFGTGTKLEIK
notes: Mouse monoclonal antibody purified from hybridoma supernatant; The label 125D5G1G2 is read as a subclone of 125D5; also called 125D5 mouse/chimeric
B2: 160D10 (hybridoma antibody, mouse) (antibody, V domains shown)
VH: QVQLQQSGPELVKPGASVKISCKASGYTFTDYYINWVKQRPGQGLEWVGWIFPGSDSAYYNEKFKGKATLTVDTSSSTAYMLLSSLTSEDSAVYFCARGDRSGPFPYWGQGTLVTVSA
VL: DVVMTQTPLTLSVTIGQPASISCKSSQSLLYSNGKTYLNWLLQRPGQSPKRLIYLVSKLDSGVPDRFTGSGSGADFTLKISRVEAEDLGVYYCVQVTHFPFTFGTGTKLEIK
notes: Mouse monoclonal antibody purified from hybridoma supernatant; also called 160D10 mouse/chimeric
B3: 129C10H2C1 (hybridoma antibody 129C10, mouse) (antibody, V domains shown)
VH: QVQLQQSGPELEKPGTSVKISCEASGYTFTDYYINWVQQRPGQGLEWIGWIFPGSESAYHSEKFKAKATLTVDTSSTTAYMLLTSLTSEDSAVYFCTRGDRSGPFAYWGQGTLVTVSA
VL: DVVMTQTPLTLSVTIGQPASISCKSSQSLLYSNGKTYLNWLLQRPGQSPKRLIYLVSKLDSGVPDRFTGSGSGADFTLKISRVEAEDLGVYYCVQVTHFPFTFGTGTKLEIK
notes: Mouse monoclonal antibody purified from hybridoma supernatant; The label 129C10H2C1 is read as a subclone of 129C10; also called 129C10 mouse/chimeric
B4: 125D5chiIgG4 (chimeric 125D5, human IgG4 kappa) (antibody, V domains shown)
VH: B1 VH
VL: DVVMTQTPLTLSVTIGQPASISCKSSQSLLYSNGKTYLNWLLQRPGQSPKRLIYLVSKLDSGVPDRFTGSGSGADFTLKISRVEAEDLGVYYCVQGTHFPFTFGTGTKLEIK
notes: also called 125D5chilgG4; 125D5 mouse/chimeric
B5: 160D10chiIgG4 (chimeric 160D10, human IgG4 kappa) (antibody, V domains shown)
VH: B2 VH
VL: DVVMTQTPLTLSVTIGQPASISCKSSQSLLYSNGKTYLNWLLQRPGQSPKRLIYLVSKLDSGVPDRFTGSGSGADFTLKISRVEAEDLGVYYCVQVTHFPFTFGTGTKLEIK
notes: also called 160D10 mouse/chimeric
B6: 129C10chiIgG4 (chimeric 129C10, human IgG4 kappa) (antibody, V domains shown)
VH: B3 VH
VL: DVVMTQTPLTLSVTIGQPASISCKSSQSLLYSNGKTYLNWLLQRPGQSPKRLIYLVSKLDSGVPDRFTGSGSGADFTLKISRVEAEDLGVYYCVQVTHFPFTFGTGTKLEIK
notes: also called 129C10 mouse/chimeric
B7: 129C10 HdLb (antibody, human IgG4, V domains shown)
VH: QVQLVQSGAEVKKPGASVKVSCKASGYTFTDYYINWVRQAPGQGLEWMGWIFPGSESAYHSQKFQGRATLTVDTSISTAYMELSRLRSDDTAVYYCTRGDRSGPFAYWGQGTLVTVSS
VL: DVVMTQSPLSLPVTLGQPASISCKSSQSLLYSNGKTYLNWLQQRPGQSPRRLIYLVSKLDSGVPDRFSGSGSGADFTLKISRVEAEDVGVYYCVQVTHFPFTFGQGTKLEIK
notes: Humanized
B8: 129C10 HbLa (antibody, human IgG4, V domains shown)
VH: B7 VH with Q62E, Q65K, G66A
VL: B7 VL with A74T
notes: Humanized
B9: 129C10 HcLb (antibody, human IgG4, V domains shown)
VH: B7 VH with A68V, L70M
VL: B7 VL
notes: Humanized
B10: 129C10 HdLa (antibody, human IgG4, V domains shown)
VH: B7 VH
VL: B7 VL with A74T
notes: Humanized
B11: 129C10 HaLb (antibody, human IgG4, V domains shown)
VH: B7 VH with Q62E, Q65K, G66A, A68V, L70M
VL: B7 VL
notes: Humanized
B12: 129C10 HcLa (antibody, human IgG4, V domains shown)
VH: B7 VH with A68V, L70M
VL: B7 VL with A74T
notes: Humanized
B13: 129C10 HbLb (antibody, human IgG4, V domains shown)
VH: B7 VH with Q62E, Q65K, G66A
VL: B7 VL
notes: Humanized
B14: OMS721 (hIgG4 kappa) (antibody, V domains shown)
VH: QVTLKESGPVLVKPTETLTLTCTVSGFSLSRGKMGVSWIRQPPGKALEWLAHIFSSDEKSYRTSLKSRLTISKDTSKNQVVLTMTNMDPVDTATYYCARIRRGGIDYWGQGTLVTVSS
VL: QPVLTQPPSLSVSPGQTASITCSGEKLGDKYAYWYQQKPGQSPVLVMYQDKQRPSGIPERFSGSNSGNTATLTISGTQAMDEADYYCQAWDSSTAVFGGGTKLTVLR
notes: Benchmark antibody with the variable regions of OMS721 (Narsoplimab) and the constant region of human IgG4; also called OMS721-analog

target: T1, human MASP-2 protein (recombinant, full-length, C-terminal tag) (human, UniProt O00187 16-686); assay: BLI (ForteBio Octet RED96), antibody on Protein A biosensor, human MASP-2 in solution (100, 50, 25 nM)
T1 construct: The protein was secreted and purified on an anti-FLAG or anti-HIS column; also called hMASP-2; Full-length human MASP-2 protein; not shown: C-terminal HIS-tag or FLAG-tag
T1 sequence (O00187 16-686): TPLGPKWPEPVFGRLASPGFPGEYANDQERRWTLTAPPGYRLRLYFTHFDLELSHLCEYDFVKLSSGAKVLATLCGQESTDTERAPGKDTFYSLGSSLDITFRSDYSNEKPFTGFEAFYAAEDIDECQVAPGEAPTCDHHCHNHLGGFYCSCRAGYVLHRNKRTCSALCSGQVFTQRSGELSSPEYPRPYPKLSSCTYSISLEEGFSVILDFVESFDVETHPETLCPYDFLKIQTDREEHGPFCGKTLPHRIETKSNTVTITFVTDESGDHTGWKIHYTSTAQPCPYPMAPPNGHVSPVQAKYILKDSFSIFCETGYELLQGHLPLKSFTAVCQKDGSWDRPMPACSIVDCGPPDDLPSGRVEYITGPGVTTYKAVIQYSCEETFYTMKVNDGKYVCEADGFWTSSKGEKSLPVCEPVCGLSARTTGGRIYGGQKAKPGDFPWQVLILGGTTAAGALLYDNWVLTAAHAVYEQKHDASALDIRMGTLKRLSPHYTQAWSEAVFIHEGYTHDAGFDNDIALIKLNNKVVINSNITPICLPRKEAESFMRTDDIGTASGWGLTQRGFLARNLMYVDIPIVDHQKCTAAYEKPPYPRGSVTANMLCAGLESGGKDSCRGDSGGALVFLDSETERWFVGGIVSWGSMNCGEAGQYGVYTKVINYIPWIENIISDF

Kd	koff	kon	Binder
1.64 nM	9.73e-05 s⁻¹	59400 M⁻¹ s⁻¹	B1
27.8 nM	0.001 s⁻¹	36100 M⁻¹ s⁻¹	B2
0.746 nM	4.78e-05 s⁻¹	64000 M⁻¹ s⁻¹	B3

target: T1, human MASP-2 protein (recombinant, …); assay: as above; remark: another data set of the same source

Kd	koff	kon	Binder
19.5 nM	0.000499 s⁻¹	25600 M⁻¹ s⁻¹	B4
0.984 nM	3.34e-05 s⁻¹	34000 M⁻¹ s⁻¹	B5
8.02 nM	0.000206 s⁻¹	25700 M⁻¹ s⁻¹	B6
< 0.001 nM	< 1e-07 s⁻¹	36000 M⁻¹ s⁻¹	B7
< 0.001 nM	< 1e-07 s⁻¹	32900 M⁻¹ s⁻¹	B8
1.36 nM	4.56e-05 s⁻¹	33700 M⁻¹ s⁻¹	B9
17.1 nM	0.000425 s⁻¹	24900 M⁻¹ s⁻¹	B10
11.4 nM	0.000291 s⁻¹	25500 M⁻¹ s⁻¹	B11
< 0.001 nM	< 1e-07 s⁻¹	35200 M⁻¹ s⁻¹	B12
< 0.001 nM	< 1e-07 s⁻¹	32900 M⁻¹ s⁻¹	B13

target: T2, Rat MASP2 (rat, UniProt Q9JJS8); assay: ELISA; plate coated with rat MASP2 (1 ug/ml), serially diluted antibody, mouse anti-human IgG4 Fc HRP, OD450
T2 construct: purchased protein coated on the ELISA plate at 1 ug/ml
T2 sequence (Q9JJS8 20-685 limits assumed): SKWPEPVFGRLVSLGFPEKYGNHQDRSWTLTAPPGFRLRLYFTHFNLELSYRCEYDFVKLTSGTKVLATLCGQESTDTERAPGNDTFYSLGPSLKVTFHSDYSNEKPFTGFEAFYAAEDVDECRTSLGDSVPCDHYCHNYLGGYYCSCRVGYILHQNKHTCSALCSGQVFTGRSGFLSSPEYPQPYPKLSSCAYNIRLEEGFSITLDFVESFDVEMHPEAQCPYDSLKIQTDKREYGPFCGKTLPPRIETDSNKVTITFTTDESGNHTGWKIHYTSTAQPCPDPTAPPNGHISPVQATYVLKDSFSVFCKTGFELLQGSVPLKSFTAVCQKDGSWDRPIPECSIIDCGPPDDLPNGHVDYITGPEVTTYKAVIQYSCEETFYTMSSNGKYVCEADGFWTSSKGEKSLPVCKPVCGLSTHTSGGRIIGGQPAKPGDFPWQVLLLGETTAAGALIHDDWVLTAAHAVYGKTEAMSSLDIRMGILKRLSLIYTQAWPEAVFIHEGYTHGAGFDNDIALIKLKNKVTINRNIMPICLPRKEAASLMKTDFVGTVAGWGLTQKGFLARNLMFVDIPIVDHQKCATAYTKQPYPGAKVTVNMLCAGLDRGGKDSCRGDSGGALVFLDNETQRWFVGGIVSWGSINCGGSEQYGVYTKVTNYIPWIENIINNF

EC50	Binder
12.3 µg/mL	B14

target: T3, Mouse MASP2 (mouse, UniProt Q91WP0); assay: ELISA; plate coated with mouse MASP2 (1 ug/ml), serially diluted antibody, mouse anti-human IgG4 Fc HRP, OD450
T3 construct: purchased protein coated on the ELISA plate at 1 ug/ml
T3 sequence (Q91WP0 20-685 limits assumed): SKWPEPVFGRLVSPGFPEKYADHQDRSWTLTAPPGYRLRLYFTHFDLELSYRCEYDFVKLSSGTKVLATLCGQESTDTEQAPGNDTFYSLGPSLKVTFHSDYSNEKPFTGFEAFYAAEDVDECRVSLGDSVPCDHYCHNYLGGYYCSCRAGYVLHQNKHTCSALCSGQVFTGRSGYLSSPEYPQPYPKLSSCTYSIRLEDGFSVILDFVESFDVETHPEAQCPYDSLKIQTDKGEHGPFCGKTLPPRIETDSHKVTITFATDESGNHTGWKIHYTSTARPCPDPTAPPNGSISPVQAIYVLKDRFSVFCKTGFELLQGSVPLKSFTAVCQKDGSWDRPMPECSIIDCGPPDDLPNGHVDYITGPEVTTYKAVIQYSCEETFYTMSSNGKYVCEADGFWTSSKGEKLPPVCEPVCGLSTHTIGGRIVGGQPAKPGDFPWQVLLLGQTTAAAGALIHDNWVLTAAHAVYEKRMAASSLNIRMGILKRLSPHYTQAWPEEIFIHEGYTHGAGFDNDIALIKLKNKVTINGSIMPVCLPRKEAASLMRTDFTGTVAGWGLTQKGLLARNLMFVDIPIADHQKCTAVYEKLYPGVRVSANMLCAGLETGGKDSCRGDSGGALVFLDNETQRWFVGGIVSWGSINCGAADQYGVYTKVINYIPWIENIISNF

EC50	Binder
4.91 µg/mL	B14

target: T4, Cyno MASP2; assay: ELISA; plate coated with cynomolgus MASP2 (1 ug/ml), serially diluted antibody, mouse anti-human IgG4 Fc HRP, OD450
T4 construct: Recombinant coated protein; distinct from m29 (native MASP-2 in cynomolgus serum); also called cynomolgus MASP-2 (recombinant, generated in house)
T4 sequence (MASP-2 polypeptide, as listed by the source limits assumed): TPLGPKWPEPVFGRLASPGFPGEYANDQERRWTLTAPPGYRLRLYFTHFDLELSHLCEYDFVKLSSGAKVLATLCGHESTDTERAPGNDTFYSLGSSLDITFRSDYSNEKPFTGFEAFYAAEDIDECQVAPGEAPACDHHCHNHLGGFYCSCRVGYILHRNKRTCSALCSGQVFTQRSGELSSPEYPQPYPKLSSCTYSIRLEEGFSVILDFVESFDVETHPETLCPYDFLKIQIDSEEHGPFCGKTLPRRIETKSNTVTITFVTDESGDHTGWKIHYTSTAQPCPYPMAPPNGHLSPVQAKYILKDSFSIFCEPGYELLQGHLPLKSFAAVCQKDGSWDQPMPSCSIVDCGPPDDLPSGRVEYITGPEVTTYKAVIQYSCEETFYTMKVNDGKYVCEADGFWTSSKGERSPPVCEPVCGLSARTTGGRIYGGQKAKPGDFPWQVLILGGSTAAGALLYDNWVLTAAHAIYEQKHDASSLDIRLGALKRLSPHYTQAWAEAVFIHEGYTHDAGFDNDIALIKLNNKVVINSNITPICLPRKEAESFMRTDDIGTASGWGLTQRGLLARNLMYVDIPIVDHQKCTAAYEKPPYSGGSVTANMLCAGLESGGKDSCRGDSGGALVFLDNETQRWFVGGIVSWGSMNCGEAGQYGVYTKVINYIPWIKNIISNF

EC50	Binder
0.0181 µg/mL	B14
